The text below walks through data of publication PMC9250616 (Angiogenesis, 2022).

Broadly, the Kd is the equilibrium constant for the complex coming apart. Low readings indicate a tighter complex, high ones a looser complex.

One test deals with Collagen I. The experiment in a line: ELISA.
The next test has as its target Collagen VI. The test can be described thus: ELISA.

Collagen VI, sequence (P12109 20-1028, chain 1 of 3): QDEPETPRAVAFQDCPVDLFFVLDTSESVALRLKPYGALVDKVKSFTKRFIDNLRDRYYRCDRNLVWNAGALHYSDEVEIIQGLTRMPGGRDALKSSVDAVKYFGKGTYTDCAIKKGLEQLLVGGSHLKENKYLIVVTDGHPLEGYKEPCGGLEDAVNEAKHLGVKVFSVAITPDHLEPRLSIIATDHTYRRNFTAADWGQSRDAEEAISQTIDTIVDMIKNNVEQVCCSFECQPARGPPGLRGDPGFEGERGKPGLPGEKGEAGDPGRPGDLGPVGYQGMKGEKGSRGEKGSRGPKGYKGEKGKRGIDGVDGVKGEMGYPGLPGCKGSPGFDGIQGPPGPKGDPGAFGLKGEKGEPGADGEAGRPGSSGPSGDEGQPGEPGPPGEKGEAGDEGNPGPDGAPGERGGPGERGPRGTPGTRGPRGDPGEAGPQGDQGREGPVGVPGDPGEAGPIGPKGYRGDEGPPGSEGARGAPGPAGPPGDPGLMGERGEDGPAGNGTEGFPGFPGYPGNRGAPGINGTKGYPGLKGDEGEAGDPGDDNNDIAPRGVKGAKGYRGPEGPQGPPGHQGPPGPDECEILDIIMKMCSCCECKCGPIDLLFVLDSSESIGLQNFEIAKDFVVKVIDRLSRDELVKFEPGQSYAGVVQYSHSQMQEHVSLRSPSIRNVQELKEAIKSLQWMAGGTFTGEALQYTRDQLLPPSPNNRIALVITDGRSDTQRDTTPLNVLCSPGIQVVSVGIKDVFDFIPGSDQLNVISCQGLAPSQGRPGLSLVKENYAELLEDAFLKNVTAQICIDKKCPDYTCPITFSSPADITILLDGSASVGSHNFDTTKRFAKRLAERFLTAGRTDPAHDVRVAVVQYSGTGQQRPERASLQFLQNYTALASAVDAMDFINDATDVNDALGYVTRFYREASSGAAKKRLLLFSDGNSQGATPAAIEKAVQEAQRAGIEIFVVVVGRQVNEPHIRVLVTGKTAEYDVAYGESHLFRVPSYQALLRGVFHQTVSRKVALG
Collagen VI, sequence (P12110 21-1019, chain 2 of 3, further chain): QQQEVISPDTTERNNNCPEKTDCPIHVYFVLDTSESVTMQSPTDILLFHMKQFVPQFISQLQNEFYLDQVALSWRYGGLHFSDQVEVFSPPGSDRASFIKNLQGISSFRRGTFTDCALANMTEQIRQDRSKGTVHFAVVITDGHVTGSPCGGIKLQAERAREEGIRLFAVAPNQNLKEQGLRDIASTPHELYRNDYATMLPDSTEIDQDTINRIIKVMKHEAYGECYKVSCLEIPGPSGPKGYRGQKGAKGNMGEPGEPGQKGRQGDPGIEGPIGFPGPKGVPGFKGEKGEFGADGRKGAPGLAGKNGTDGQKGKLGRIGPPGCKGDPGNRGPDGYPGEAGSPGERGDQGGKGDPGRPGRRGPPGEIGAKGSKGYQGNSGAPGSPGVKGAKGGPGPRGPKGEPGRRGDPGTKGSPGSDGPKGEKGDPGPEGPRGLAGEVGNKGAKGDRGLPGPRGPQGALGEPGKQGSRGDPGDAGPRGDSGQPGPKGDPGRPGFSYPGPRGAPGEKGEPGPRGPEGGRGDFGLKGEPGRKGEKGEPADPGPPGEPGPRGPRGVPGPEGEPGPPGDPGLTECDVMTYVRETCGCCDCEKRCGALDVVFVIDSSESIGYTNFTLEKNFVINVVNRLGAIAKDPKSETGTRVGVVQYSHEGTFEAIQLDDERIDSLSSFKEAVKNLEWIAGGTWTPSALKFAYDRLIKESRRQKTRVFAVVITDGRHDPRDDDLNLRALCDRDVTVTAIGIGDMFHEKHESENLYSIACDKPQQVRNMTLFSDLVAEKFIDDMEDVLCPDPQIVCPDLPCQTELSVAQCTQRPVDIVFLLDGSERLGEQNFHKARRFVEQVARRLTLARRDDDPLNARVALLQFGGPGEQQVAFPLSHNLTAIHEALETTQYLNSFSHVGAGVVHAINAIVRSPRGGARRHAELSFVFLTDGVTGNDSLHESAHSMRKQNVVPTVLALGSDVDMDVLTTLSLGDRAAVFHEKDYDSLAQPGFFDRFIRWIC
Collagen VI, sequence (P12111 26-3177, chain 3 of 3, further chain): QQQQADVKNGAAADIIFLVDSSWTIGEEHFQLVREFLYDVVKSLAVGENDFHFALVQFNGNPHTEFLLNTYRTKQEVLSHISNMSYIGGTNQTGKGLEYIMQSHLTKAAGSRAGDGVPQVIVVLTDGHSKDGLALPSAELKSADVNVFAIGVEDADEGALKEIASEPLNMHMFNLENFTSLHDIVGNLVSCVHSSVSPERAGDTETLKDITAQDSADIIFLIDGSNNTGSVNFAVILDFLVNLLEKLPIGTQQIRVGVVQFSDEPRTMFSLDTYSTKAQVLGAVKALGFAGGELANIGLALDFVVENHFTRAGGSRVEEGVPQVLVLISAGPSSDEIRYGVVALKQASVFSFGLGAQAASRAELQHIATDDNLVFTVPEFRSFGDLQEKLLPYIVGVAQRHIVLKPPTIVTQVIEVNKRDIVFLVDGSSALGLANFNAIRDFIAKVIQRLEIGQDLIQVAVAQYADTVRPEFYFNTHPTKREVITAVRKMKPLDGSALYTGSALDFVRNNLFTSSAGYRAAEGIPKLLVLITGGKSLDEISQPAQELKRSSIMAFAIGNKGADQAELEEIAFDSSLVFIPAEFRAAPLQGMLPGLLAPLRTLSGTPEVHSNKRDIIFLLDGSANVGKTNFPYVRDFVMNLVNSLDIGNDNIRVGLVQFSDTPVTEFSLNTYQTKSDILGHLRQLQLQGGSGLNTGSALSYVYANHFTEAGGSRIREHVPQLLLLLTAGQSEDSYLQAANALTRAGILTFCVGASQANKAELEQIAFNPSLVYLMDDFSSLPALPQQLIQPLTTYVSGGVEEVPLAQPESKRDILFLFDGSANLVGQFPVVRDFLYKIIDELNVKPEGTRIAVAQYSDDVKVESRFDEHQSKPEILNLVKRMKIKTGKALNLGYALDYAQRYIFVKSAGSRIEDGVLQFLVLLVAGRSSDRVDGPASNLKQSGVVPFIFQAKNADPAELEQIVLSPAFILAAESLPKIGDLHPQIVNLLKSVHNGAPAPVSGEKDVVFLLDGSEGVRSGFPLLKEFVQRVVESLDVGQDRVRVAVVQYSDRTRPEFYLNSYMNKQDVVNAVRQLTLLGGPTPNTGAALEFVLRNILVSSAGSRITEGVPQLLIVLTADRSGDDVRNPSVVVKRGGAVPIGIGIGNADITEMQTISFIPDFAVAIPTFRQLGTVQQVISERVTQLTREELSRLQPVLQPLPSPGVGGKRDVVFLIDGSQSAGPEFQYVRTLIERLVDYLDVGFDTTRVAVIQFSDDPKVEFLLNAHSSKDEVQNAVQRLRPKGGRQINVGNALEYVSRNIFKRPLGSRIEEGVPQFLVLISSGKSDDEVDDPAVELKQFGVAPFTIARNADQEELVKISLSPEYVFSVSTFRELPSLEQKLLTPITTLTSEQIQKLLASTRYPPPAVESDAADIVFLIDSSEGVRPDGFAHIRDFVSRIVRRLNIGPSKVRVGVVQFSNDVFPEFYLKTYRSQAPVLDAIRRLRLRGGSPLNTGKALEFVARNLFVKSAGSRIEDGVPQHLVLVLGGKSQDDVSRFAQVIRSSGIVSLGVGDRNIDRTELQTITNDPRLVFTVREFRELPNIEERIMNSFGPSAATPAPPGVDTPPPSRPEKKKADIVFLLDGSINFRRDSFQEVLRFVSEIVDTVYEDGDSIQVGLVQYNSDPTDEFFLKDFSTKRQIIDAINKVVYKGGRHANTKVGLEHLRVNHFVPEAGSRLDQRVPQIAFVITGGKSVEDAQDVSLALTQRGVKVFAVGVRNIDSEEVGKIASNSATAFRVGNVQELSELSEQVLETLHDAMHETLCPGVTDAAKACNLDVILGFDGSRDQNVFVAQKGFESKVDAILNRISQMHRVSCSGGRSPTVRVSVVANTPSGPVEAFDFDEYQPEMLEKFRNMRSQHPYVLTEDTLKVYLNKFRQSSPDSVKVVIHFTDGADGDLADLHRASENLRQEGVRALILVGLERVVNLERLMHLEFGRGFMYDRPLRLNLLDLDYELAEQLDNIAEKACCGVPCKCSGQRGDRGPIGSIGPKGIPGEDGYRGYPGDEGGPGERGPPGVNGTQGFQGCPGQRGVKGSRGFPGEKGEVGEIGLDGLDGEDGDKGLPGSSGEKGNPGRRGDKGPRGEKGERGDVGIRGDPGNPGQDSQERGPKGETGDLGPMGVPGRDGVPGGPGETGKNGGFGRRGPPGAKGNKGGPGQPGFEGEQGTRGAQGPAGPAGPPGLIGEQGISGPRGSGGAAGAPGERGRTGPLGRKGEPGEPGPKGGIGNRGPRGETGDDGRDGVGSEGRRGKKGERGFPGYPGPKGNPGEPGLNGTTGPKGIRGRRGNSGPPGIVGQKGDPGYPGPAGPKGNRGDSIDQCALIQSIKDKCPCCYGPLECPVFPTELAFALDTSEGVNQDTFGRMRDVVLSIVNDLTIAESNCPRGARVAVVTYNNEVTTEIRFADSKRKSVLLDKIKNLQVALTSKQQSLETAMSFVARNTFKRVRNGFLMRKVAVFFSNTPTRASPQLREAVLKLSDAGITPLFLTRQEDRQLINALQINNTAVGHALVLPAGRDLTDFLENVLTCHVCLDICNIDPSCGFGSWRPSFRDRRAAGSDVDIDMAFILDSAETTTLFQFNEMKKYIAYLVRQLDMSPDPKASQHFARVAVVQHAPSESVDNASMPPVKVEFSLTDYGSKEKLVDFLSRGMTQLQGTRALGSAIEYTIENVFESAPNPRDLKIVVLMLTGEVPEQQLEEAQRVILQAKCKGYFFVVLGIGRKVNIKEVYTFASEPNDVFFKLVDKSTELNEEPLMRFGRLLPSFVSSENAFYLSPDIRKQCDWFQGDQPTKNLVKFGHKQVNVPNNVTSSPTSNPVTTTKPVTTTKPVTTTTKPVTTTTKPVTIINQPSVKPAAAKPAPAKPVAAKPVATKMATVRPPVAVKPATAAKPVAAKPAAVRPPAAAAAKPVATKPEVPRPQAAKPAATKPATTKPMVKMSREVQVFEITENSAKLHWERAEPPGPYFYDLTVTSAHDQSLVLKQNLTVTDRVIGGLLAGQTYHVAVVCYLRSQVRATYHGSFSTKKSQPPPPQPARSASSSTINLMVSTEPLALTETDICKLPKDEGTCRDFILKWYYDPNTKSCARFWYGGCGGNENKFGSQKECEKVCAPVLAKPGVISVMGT

B1: biotinylated CMG2-AviTag construct (capillary morphogenesis gene 2, anthrax toxin receptor 2) (receptor)
chain: not shown
modifications: biotin (biotinylated CMG2-AviTag construct)
B1: the dissociation constant (Kd) with Collagen I worked out at 500 nM; with Collagen VI, 800 nM.
